B1: Keratin, type II cytoskeletal 6A (Homo sapiens), P02538 (parent)
chain: MASTSTTIRSHSSSRRGFSANSARLPGVSRSGFSSVSVSRSRGSGGLGGACGGAGFGSRSLYGLGGSKRISIGGGSCAISGGYGSRAGGSYGFGGAGSGFGFGGGAGIGFGLGGGAGLAGGFGGPGFPVCPPGGIQEVTVNQSLLTPLNLQIDPTIQRVRAEEREQIKTLNNKFASFIDKVRFLEQQNKVLETKWTLLQEQGTKTVRQNLEPLFEQYINNLRRQLDSIVGERGRLDSELRGMQDLVEDFKNKYEDEINKRTAAENEFVTLKKDVDAAYMNKVELQAKADTLTDEINFLRALYDAELSQMQTHISDTSVVLSMDNNRNLDLDSIIAEVKAQYEEIAQRSRAEAESWYQTKYEELQVTAGRHGDDLRNTKQEIAEINRMIQRLRSEIDHVKKQCANLQAAIADAEQRGEMALKDAKNKLEGLEDALQKAKQDLARLLKEYQELMNVKLALDVEIATYRKLLEGEECRLNGEGVGQVNISVVQSTVSSGYGGASGVGSGLGLGGGSSYSYGSGLGVGGGFSSSSGRAIGGGLSSVGGGSSTIKYTTTSSSSRKSYKH
partner: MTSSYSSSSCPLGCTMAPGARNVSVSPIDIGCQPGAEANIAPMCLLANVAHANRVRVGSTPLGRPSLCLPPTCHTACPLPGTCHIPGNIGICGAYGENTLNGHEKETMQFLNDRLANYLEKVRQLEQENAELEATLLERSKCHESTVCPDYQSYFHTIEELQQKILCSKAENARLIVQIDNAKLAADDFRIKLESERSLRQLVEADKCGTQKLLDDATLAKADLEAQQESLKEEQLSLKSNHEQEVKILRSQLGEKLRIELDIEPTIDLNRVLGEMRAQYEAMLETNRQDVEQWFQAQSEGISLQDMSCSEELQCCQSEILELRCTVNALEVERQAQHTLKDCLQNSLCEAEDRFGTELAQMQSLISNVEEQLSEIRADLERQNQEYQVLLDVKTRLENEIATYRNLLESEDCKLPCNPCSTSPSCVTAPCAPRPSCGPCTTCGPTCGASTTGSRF
B2: Sodium channel modifier 1 (Homo sapiens), Q9BWG6 (parent)
chain: MSFKREGDDWSQLNVLKKRRVGDLLASYIPEDEALMLRDGRFACAICPHRPVLDTLAMLTAHRAGKKHLSSLQLFYGKKQPGKERKQNPKHQNELRREETKAEAPLLTQTRLITQSALHRAPHYNSCCRRKYRPEAPGPSVSLSPMPPSEVKLQSGKISREPEPAAGPQAEESATVSAPAPMSPTRRRALDHYLTLRSSGWIPDGRGRWVKDENVEFDSDEEEPPDLPLD
partner: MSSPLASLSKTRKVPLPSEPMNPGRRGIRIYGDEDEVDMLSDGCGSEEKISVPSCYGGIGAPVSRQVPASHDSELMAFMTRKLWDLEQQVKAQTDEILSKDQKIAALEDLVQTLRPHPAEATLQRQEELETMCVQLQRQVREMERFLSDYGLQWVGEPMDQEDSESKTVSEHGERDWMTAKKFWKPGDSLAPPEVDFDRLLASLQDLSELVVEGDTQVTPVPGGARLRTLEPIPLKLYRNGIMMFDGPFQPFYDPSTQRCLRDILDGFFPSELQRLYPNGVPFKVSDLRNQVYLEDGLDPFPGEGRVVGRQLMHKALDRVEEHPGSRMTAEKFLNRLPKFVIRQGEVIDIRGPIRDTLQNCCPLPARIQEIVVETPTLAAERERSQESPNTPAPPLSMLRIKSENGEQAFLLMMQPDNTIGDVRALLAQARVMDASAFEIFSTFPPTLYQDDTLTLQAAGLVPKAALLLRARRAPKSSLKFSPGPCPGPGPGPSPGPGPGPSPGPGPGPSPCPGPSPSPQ
B3: Zinc finger protein RFP (Homo sapiens), P14373 (parent)
chain: MASGSVAECLQQETTCPVCLQYFAEPMMLDCGHNICCACLARCWGTAETNVSCPQCRETFPQRHMRPNRHLANVTQLVKQLRTERPSGPGGEMGVCEKHREPLKLYCEEDQMPICVVCDRSREHRGHSVLPLEEAVEGFKEQIQNQLDHLKRVKDLKKRRRAQGEQARAELLSLTQMEREKIVWEFEQLYHSLKEHEYRLLARLEELDLAIYNSINGAITQFSCNISHLSSLIAQLEEKQQQPTRELLQDIGDTLSRAERIRIPEPWITPPDLQEKIHIFAQKCLFLTESLKQFTEKMQSDMEKIQELREAQLYSVDVTLDPDTAYPSLILSDNLRQVRYSYLQQDLPDNPERFNLFPCVLGSPCFIAGRHYWEVEVGDKAKWTIGVCEDSVCRKGGVTSAPQNGFWAVSLWYGKEYWALTSPMTALPLRTPLQRVGIFLDYDAGEVSFYNVTERCHTFTFSHATFCGPVRPYFSLSYSGGKSAAPLIICPMSGIDGFSGHVGNHGHSMETSP
B4: Transcription factor 4 (Homo sapiens), P15884 (parent)
chain: MHHQQRMAALGTDKELSDLLDFSAMFSPPVSSGKNGPTSLASGHFTGSNVEDRSSSGSWGNGGHPSPSRNYGDGTPYDHMTSRDLGSHDNLSPPFVNSRIQSKTERGSYSSYGRESNLQGCHQQSLLGGDMDMGNPGTLSPTKPGSQYYQYSSNNPRRRPLHSSAMEVQTKKVRKVPPGLPSSVYAPSASTADYNRDSPGYPSSKPATSTFPSSFFMQDGHHSSDPWSSSSGMNQPGYAGMLGNSSHIPQSSSYCSLHPHERLSYPSHSSADINSSLPPMSTFHRSGTNHYSTSSCTPPANGTDSIMANRGSGAAGSSQTGDALGKALASIYSPDHTNNSFSSNPSTPVGSPPSLSAGTAVWSRNGGQASSSPNYEGPLHSLQSRIEDRLERLDDAIHVLRNHAVGPSTAMPGGHGDMHGIIGPSHNGAMGGLGSGYGTGLLSANRHSLMVGTHREDGVALRGSHSLLPNQVPVPQLPVQSATSPDLNPPQDPYRGMPPGLQGQSVSSGSSEIKSDDEGDENLQDTKSSEDKKLDDDKKDIKSITSNNDDEDLTPEQKAEREKERRMANNARERLRVRDINEAFKELGRMVQLHLKSDKPQTKLLILHQAVAVILSLEQQVRERNLNPKAACLKRREEEKVSSEPPPLSLAGPHPGMGDASNHMGQM
B5: SKA complex subunit 1 (Homo sapiens), Q96BD8 (parent)
chain: MASSDLEQLCSHVNEKIGNIKKTLSLRNCGQEPTLKTVLNKIGDEIIVINELLNKLELEIQYQEQTNNSLKELCESLEEDYKDIEHLKENVPSHLPQVTVTQSCVKGSDLDPEEPIKVEEPEPVKKPPKEQRSIKEMPFITCDEFNGVPSYMKSRLTYNQINDVIKEINKAVISKYKILHQPKKSMNSVTRNLYHRFIDEETKDTKGRYFIVEADIKEFTTLKADKKFHVLLNILRHCRRLSEVRGGGLTRYVIT
partner: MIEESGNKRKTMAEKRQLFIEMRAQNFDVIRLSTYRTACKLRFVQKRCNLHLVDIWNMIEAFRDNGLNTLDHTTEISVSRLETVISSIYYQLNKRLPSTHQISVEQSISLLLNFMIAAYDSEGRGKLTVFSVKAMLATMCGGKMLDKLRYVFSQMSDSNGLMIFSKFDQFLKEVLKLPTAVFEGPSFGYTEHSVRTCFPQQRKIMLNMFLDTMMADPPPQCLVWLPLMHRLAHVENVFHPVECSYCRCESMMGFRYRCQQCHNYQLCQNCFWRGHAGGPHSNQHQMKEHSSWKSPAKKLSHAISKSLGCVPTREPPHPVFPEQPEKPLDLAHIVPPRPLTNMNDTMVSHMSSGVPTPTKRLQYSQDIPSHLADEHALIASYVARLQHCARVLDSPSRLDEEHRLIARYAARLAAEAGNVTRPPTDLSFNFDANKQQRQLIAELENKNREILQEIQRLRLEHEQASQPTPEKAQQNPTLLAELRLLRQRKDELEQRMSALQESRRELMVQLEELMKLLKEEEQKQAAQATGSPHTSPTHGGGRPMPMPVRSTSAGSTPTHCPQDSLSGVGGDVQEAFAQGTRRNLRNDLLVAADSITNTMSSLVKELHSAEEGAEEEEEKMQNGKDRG
B6: Centrosomal protein POC5 (Homo sapiens), Q8NA72 (parent)
chain: MSSDEEKYSLPVVQNDSSRGSSVSSNLQEEYEELLHYAIVTPNIEPCASQSSHPKGELVPDVRISTIHDILHSQGNNSEVRETAIEVGKGCDFHISSHSKTDESSPVLSPRKPSHPVMDFFSSHLLADSSSPATNSSHTDAHEILVSDFLVSDENLQKMENVLDLWSSGLKTNIISELSKWRLNFIDWHRMEMRKEKEKHAAHLKQLCNQINELKELQKTFEISIGRKDEVISSLSHAIGKQKEKIELMRTFFHWRIGHVRARQDVYEGKLADQYYQRTLLKKVWKVWRSVVQKQWKDVVERACQARAEEVCIQISNDYEAKVAMLSGALENAKAEIQRMQHEKEHFEDSMKKAFMRGVCALNLEAMTIFQNRNDAGIDSTNNKKEEYGPGVQGKEHSAHLDPSAPPMPLPVTSPLLPSPPAAVGGASATAVPSAASMTSTRAASASSVHVPVSALGAGSAATAASEEMYVPRVVTSAQQKAGRTITARITGRCDFASKNRISSSLAIMGVSPPMSSVVVEKHHPVTVQTIPQATAAKYPRTIHPESSTSASRSLGTRSAHTQSLTSVHSIKVVD
partner: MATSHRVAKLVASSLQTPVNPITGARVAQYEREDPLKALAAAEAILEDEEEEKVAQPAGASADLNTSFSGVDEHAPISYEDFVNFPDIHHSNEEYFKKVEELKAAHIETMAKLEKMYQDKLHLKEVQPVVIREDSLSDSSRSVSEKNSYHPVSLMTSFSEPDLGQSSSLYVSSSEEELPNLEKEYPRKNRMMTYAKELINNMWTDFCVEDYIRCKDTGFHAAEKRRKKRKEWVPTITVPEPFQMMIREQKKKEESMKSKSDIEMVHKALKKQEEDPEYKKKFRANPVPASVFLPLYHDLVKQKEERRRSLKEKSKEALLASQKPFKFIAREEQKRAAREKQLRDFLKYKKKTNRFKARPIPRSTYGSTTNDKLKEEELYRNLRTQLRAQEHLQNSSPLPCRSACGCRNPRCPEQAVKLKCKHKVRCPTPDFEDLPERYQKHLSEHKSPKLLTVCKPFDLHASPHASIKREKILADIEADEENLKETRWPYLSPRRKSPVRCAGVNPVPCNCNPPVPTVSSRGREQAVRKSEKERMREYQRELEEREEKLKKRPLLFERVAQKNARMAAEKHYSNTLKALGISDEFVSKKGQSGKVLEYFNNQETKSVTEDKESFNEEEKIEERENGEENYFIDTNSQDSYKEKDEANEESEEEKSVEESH
B7: Keratin, type I cytoskeletal 20 (Homo sapiens), P35900 (parent)
chain: MDFSRRSFHRSLSSSLQAPVVSTVGMQRLGTTPSVYGGAGGRGIRISNSRHTVNYGSDLTGGGDLFVGNEKMAMQNLNDRLASYLEKVRTLEQSNSKLEVQIKQWYETNAPRAGRDYSAYYRQIEELRSQIKDAQLQNARCVLQIDNAKLAAEDFRLKYETERGIRLTVEADLQGLNKVFDDLTLHKTDLEIQIEELNKDLALLKKEHQEEVDGLHKHLGNTVNVEVDAAPGLNLGVIMNEMRQKYEVMAQKNLQEAKEQFERQTAVLQQQVTVNTEELKGTEVQLTELRRTSQSLEIELQSHLSMKESLEHTLEETKARYSSQLANLQSLLSSLEAQLMQIRSNMERQNNEYHILLDIKTRLEQEIATYRRLLEGEDVKTTEYQLSTLEERDIKKTRKIKTVVQEVVDGKVVSSEVKEVEENI

Variants of: B1
Settings: with krt38_human KRT38, O76015

effect of a mutation on the interaction | Variant
with no effect | P154S

Variants of: B2
Settings: with ubx11_human UBXN11, Q5T124

effect of a mutation on the interaction | Variant
with no effect | A174V

Variants of: B3
Settings: with if4e_human EIF4E

effect of a mutation on the interaction | Variant
with no effect | N355S

Variants of: B3
Settings: with fhl3_human FHL3, Q13643
Sequence of fhl3_human FHL3, Q13643 (Q13643 whole entry): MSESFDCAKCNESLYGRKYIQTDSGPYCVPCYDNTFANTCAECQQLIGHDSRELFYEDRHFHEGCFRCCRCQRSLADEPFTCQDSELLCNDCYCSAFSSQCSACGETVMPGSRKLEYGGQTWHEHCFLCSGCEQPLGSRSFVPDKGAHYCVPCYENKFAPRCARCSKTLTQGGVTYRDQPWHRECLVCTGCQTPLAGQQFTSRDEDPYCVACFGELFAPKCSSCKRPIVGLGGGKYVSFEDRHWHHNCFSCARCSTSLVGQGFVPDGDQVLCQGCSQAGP

effect of a mutation on the interaction | Variant
disrupting interaction strength | N355S

Variants of: B3
Settings: with bmp7_human BMP7, P18075
Sequence of bmp7_human BMP7, P18075 (P18075 whole entry): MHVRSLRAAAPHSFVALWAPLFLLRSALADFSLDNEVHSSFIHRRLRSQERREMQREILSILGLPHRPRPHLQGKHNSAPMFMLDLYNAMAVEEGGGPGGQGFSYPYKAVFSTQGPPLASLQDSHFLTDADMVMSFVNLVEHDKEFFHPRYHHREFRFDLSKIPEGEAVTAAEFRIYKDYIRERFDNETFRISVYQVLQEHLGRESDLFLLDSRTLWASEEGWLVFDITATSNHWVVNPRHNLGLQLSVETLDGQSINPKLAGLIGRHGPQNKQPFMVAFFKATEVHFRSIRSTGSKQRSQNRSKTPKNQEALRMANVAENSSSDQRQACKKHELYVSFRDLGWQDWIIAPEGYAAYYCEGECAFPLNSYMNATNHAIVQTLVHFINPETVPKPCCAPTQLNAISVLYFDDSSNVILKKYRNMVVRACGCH

effect of a mutation on the interaction | Variant
with no effect | N355S

Variants of: B3
Settings: with ercc3_human ERCC3, P19447
Sequence of ercc3_human ERCC3, P19447 (P19447 whole entry): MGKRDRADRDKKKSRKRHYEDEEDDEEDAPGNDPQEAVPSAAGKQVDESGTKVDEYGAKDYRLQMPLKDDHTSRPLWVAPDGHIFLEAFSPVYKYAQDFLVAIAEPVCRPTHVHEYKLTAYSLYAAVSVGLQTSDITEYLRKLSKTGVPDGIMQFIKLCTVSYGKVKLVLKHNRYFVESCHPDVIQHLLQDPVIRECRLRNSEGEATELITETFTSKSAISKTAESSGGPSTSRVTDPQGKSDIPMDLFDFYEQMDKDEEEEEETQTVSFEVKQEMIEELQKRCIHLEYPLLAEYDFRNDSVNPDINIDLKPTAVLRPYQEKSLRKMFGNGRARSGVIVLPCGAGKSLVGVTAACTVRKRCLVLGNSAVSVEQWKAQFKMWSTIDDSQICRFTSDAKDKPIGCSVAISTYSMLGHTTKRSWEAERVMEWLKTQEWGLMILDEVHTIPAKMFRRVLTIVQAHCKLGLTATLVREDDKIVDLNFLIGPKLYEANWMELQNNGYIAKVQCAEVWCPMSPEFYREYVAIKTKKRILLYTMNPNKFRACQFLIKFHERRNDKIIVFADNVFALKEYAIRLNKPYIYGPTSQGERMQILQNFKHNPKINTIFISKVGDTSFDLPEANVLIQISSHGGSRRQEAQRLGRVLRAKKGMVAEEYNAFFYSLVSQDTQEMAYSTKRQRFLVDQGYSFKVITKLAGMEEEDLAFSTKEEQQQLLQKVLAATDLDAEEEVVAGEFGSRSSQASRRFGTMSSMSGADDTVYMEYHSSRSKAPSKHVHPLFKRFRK

effect of a mutation on the interaction | Variant
with no effect | N355S

Variants of: B4
Settings: with defi6_human DEF6, Q9H4E7
Sequence of defi6_human DEF6, Q9H4E7 (Q9H4E7 whole entry): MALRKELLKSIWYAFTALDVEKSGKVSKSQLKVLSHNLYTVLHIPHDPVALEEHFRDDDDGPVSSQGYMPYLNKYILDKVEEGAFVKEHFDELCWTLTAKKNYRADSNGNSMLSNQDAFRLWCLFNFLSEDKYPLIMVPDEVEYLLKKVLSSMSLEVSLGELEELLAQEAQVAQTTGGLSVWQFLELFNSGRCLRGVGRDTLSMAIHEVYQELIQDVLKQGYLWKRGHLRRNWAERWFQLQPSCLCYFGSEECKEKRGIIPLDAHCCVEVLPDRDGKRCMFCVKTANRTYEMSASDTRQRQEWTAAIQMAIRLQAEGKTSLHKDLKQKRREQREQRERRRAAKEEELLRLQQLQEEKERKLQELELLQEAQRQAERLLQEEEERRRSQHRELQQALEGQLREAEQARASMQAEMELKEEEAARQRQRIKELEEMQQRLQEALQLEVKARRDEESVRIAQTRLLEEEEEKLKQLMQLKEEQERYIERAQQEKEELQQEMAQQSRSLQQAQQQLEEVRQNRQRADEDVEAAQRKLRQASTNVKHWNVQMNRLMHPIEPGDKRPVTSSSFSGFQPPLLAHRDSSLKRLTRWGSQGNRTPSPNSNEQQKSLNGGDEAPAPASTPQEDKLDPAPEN

effect of a mutation on the interaction | Variant
with no effect | N90S

Variants of: B5
Settings: with dtnb_human DTNB

effect of a mutation on the interaction | Variant
with no effect | V91I

Variants of: B6
Settings: with FAM161A

effect of a mutation on the interaction | Variant
with no effect | H36R
with no effect | I175M

Variants of: B7
Settings: with KRT15, P19012
Sequence of KRT15, P19012 (P19012 whole entry): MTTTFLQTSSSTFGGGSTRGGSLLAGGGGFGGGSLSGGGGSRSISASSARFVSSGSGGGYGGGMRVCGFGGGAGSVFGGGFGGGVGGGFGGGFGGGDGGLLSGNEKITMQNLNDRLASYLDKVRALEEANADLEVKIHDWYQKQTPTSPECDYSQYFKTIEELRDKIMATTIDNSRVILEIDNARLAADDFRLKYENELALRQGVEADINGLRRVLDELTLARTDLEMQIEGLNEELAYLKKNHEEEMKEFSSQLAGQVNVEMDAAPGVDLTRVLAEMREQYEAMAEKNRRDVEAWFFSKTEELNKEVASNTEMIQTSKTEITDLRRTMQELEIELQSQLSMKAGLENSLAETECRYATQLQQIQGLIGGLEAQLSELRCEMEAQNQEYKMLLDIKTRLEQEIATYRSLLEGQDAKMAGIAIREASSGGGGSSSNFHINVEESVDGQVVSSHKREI

effect of a mutation on the interaction | Variant
with no effect | S129N

Variants of: B7
Settings: with vime_human VIM

effect of a mutation on the interaction | Variant
with no effect | S129N

Source: IntAct's records for PubMed 31515488
